The target of assay [1] is T1, monovalent hVISTA-ECD (amino acids 32-193 of SEQ ID NO: 1 with a 7xHis tail) (human, UniProt Q9H7M9 33-193).
T1 construct: analyte of the SPR assays; also called huVISTA-His; human VISTA-ECD
Nature of the assay: SPR 37C, Ab on Protein A, hVISTA-ECD 50-5 nM, pH 6.0, average. The method, then: Binding of several preparations of each of the ‘029 progeny clones and of the parent ‘029 antibodies, formatted as IgG1.3 antibodies, to human VISTA at pH 6.0 and 7.4 was measured by Surface plasmon resonance (SPR). SPR analysis was performed to measure koff and KD binding affinity measurements for VISTA Abs at acidic and neutral pHs using a Biacore® T100 instrument (GE Healthcare). […] Antibodies were diluted to 25 nM in PBST pH 7.4, and were captured across active biosensor flow cells at 5 ul/min for 60 seconds. A concentration series of 50 - 5 nM monovalent hVISTA-ECD (SEQ ID NO: 325) was prepared in pH 7.4 and 6.0 running buffers, and was injected over the captured antibodies at 40 ul/min to measure association and dissociation. Two 15 second injections of 10 mM glycine pH 1.5 were used to regenerate the Protein A capture surface between assay cycles. Rate constants ka (kₒₙ) and kd (koff) were derived from reference flow cell and 0 nM blank-subtracted sensorgrams, and were fit to a 1:1 binding model in Biacore® T200 Evaluation Software v.2.0. The affinity constant, KD was calculated as the ratio of rate constants koff/kₒₙ for each VISTA antibody.

For assay [2], the target named is T2, hVISTA-ECD 6-His tag (human, UniProt Q9H7M9 33-193).
T2 construct: also called monovalent hVISTA-ECD; human VISTA
Put plainly: SPR, Ab on Protein A, hVISTA analyte, pH 6.0. In general terms: In SPR one partner is held on a chip, and binding of the other changes the refractive index at the surface.

For assay [3], the target named is T2, hVISTA-ECD 6-His tag. Put plainly: SPR, Ab on Protein A, hVISTA analyte, pH 6.9. How it is done: Further binding kinetic experiments were performed at various pHs on VISTA antibodies described herein by SPR as generally described in Example 9 above. Antibodies were normalized to 50 nM concentration in PBST pH 7.4 and captured on a Protein A CM5 chip (ID 4931) by injecting for 45 seconds at a 5 µL/min flow rate. An 8-point human VISTA titration ([…]) was prepared in PBST at pH 7.4, 6.9, 6.45, and 6.0. Titrations were injected over the captured antibodies for 180 seconds at 30 µL/min. Sensorgrams were fit to a 1:1 binding model in T200 evaluation software and the kinetic constants were reported.
Each table reports the data at one of the four tested pHs (7.4, 6.9, 6.45, and 6.0, respectively). The 8-point hVISTA titration used in these assays was chosen to provide increased confidence in kinetic values reported at neutral pH conditions. A relatively stringent cutoff for non-binding was applied in this assay. Certain progeny of P1-061029 antibody (P1-068757, ‘759, ‘765, ‘771, and ‘775) show no binding to hVISTA at micromolar concentrations at pH 7.4, while ‘761 and ‘767 show no binding to hVISTA at 100 nM at pH 7.4 but do show binding to hVISTA at micromolar concentrations.

Assay [4] addresses T2, hVISTA-ECD 6-His tag. Put plainly: SPR, Ab on Protein A, hVISTA analyte, pH 6.45.
In assay [5] the target is T2, hVISTA-ECD 6-His tag. Put plainly: SPR 37 C, Ab on Protein A, pH 7.4.
Assay [6] deals with T2, hVISTA-ECD 6-His tag. Put plainly: SPR 37 C, Ab on Protein A, pH 6.0.

Several values for one entry are separate records, joined by “and”; a condition that tells them apart may be missing. Equal values may be shown once.

As usually defined, the Kd is the free concentration of one partner at which half of the binding sites on the other are occupied at equilibrium, for simple one-to-one binding. As usually defined, the koff is the first-order rate constant of dissociation. Low readings indicate slow dissociation, high ones fast dissociation. Usually kon stands for the rate constant with which the complex forms. A low value points to slower complex formation.

T2 sequence (Q9H7M9 other isoform, or with tags, fused parts or gaps limits assumed): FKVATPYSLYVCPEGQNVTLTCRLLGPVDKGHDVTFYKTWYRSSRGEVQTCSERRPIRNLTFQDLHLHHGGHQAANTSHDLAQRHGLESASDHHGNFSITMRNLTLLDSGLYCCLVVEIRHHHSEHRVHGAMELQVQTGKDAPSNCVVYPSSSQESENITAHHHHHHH
T1 sequence (Q9H7M9 other isoform, or with tags, fused parts or gaps limits assumed): as above

B1: P1-068757 (antibody, human IgG1, kappa, V domains shown)
VH: EVQLVESGGGLVQPGKSLRLSCAASGFTLEDEAMHWVRQAPGKGLEWVSGINWNSEEIGYADSVKGRFTISRDNAKNSLYLQMNSLRTEDTALYYCAKVPGYSGGWIDAEDDWGQGTMVTVSS
VL: not shown
notes: IgG1.3; also called P1-068757-9
In assay [1], B1 displayed a Kd of 19 nM, a koff of 0.017 s⁻¹ and a kon of 890000 M⁻¹ s⁻¹.

B2: P1-068773 (antibody, human IgG1, kappa, V domains shown)
VH: EVQLVESGGGLVQPGKSLRLSCAASGFTLEDYAMHWVRQAPGKGLEWVSGIDWNSDNIGYADSVKGRFTISRDNAKNSLYLQMNSLRTEDTALYYCAKVPGYSGGWIDAEDDWGQGTMVTVSS
VL: not shown
notes: IgG1.3
In assay [1], B2 gave a Kd of 9.4 nM, a koff of 0.0029 s⁻¹ and an association rate constant (kon) of 300000 M⁻¹ s⁻¹.

B3: P1-068775 (antibody, human IgG1, kappa, V domains shown)
VH: EVQLVESGGGLVQPGKSLRLSCAASGFTLEDEAMHWVRQAPGKGLEWVSGIDWNSEEIGYADSVKGRFTISRDNAKNSLYLQMNSLRTEDTALYYCAKVPGYSHGWIDAEDDWGQGTMVTVSS
VL: not shown
notes: IgG1.3; also called P1-068775-8
Take B3: in assay [1], the Kd came out at 23 nM, the koff amounted to 0.047 s⁻¹ and the kon was found to be 1.8e+06 M⁻¹ s⁻¹.

B4: P1-069073 (antibody, human IgG1, kappa, V domains shown)
VH: EVQLVESGGGLVQPGKSLRLSCAASGFTLEDEAMHWVRQAPGKGLEWVSGINWNSAEIGYADSVKGRFTISRDNAKNSLYLQMNSLRTEDTALYYCAKVPGYSGGWIDAEDVWGQGTMVTVSS
VL: not shown
notes: IgG1.3
On to B4, for which, in assay [1], the Kd was 9.4 nM, the koff stood at 0.0058 s⁻¹ and the kon is 610000 M⁻¹ s⁻¹.

B5: P1-068759 (antibody, human IgG1, kappa, V domains shown)
VH: EVQLVESGGGLVQPGKSLRLSCAASGFTLEDEAMHWVRQAPGKGLEWVSGIDWNSENIGYADSVKGRFTISRDNAKNSLYLQMNSLRTEDTALYYCAKVPGYSGGWIDAEDDWGQGTMVTVSS
VL: not shown
notes: also called P1-068759-9; 029 progeny
In the assay with hVISTA-ECD 6-His tag [2], B5 displayed an equilibrium dissociation constant (Kd) of 96 nM, a koff of 0.058 s⁻¹ and a kon of 600000 M⁻¹ s⁻¹.

B6: P1-068771 (antibody, human IgG1, kappa, V domains shown)
VH: EVQLVESGGGLVQPGKSLRLSCAASGFTLEDEAMHWVRQAPGKGLEWVSGINWNSHEIGYADSVKGRFTISRDNAKNSLYLQMNSLRTEDTALYYCAKVPGYSGGWIDAEDDWGQGTMVTVSS
VL: not shown
notes: IgG1.3; also called P1-068771-10
In the case of B6, in assay [1], binding was characterised by a dissociation constant (Kd) of 25 nM, the koff was 0.018 s⁻¹ and the kon was found to be 760000 M⁻¹ s⁻¹.

B7: P1-068769 (antibody, human IgG1, kappa, V domains shown)
VH: EVQLVESGGGLVQPGKSLRLSCAASGFTLEDEAMHWVRQAPGKGLEWVSGINWNSDHIGYADSVKGRFTISRDNAKNSLYLQMNSLRTEDTALYYCAKVPGYSGGWIDAEDDWGQGTMVTVSS
VL: not shown
notes: IgG1.3
In assay [1], B7 showed a Kd of 55 nM, an off-rate constant (koff) of 0.04 s⁻¹ and a kon of 810000 M⁻¹ s⁻¹.

B8: P1-068759 (antibody, human IgG1, kappa, V domains shown)
VH: EVQLVESGGGLVQPGKSLRLSCAASGFTLEDEAMHWVRQAPGKGLEWVSGIDWNSENIGYADSVKGRFTISRDNAKNSLYLQMNSLRTEDTALYYCAKVPGYSGGWIDAEDDWGQGTMVTVSS
VL: not shown
notes: IgG1.3; also called P1-068759-9
Consider B8, for which, in assay [1], the affinity, expressed as Kd, was 60 nM; the koff came to 0.08 s⁻¹; the on-rate constant (kon) came out at 1.3e+06 M⁻¹ s⁻¹.

B9: P1-072000 (P1-061029_F100fE_V102D) (antibody, human IgG1, kappa, V domains shown)
VH: EVQLVESGGGLVQPGKSLRLSCAASGFTLDDYAMHWVRQAPGKGLEWVSGINWNSANIGYADSVKGRFTISRDNAKNSLYLQMNSLRTEDTALYYCAKVPGYSGGWIDAEDDWGQGTMVTVSS
VL: not shown
notes: also called P1-072000-3; P1-72000
With B9, in the assay with hVISTA-ECD 6-His tag [3], the Kd was 280 nM and 250 nM; the koff was found to be 0.011 s⁻¹; the on-rate constant (kon) was 39000 M⁻¹ s⁻¹ and 42000 M⁻¹ s⁻¹. In the assay with hVISTA-ECD 6-His tag [4], the Kd is 47 nM and 27 nM; the koff was 0.0053 s⁻¹ and 0.0044 s⁻¹; the kon is 110000 M⁻¹ s⁻¹ and 160000 M⁻¹ s⁻¹. Moreover, in the assay with hVISTA-ECD 6-His tag [2], the dissociation constant Kd was 11 nM and 5.8 nM; the koff is 0.0027 s⁻¹ and 0.0026 s⁻¹; the kon was 250000 M⁻¹ s⁻¹ and 450000 M⁻¹ s⁻¹.

B10: P1-069061 (antibody, human IgG1, kappa, V domains shown)
VH: EVQLVESGGGLVQPGKSLRLSCAASGFTLEDYAMHWVRQAPGKGLEWVSGINWNSAEIGYADSVKGRFTISRDNAKNSLYLQMNSLRTEDTALYYCAKVPGYSGGWIDAEDDWGQGTMVTVSS
VL: not shown
notes: IgG1.3
On to B10, for which, in assay [1], binding was characterised by a dissociation constant (Kd) of 2.5 nM, the off-rate (koff) is 0.0011 s⁻¹ and the kon stood at 430000 M⁻¹ s⁻¹.

B11: P1-068765 (antibody, human IgG1, kappa, V domains shown)
VH: EVQLVESGGGLVQPGKSLRLSCAASGFTDEDYAMHWVRQAPGKGLEWVSGINWNSEEIGYADSVKGRFTISRDNAKNSLYLQMNSLRTEDTALYYCAKVPGYSGGWIDAEDDWGQGTMVTVSS
VL: not shown
notes: IgG1.3; also called P1-068765-10
With B11, in assay [1], the Kd was 19 nM, the koff turned out to be 0.007 s⁻¹ and the kon was determined as 370000 M⁻¹ s⁻¹.

B12: P1-069059 (antibody, human IgG1, kappa, V domains shown)
VH: EVQLVESGGGLVQPGKSLRLSCAASGFTLEDYAMHWVRQAPGKGLEWVSGINWNSDHIGYADSVKGRFTISRDNAKNSLYLQMNSLRTEDTALYYCAKVPGYSGGWIDAEDDWGQGTMVTVSS
VL: not shown
notes: IgG1.3
In assay [1], B12 came in with a Kd of 4.8 nM, a koff of 0.0016 s⁻¹ and a kon of 340000 M⁻¹ s⁻¹.

B13: P1-068736 (antibody, human IgG1, kappa, V domains shown)
VH: QVQLVESGGGVVQPGRSLRLSCAASGFTFSEYAMHWVRQAPGKGLEWVAIDWYDGSNKDYADSVKGRFTISRDNSKNTLYLQMNSLRAEDTAVYYCARDSGFYDSYYFDDWGQGTLVTVSS
VL: EIVLTQSPATLSLSPGERATLSCRASQSVSSSYLAWYQQKPGQAPRLLIYDASNRATGIPARFSGSGSGTDFTLTISSLEPEDFATYYCQQYNSYPYTFGQGTKLEIKR
notes: IgG1.3
As for B13, in assay [1], the Kd was 1.1 nM, the koff came to 0.0095 s⁻¹ and the on-rate constant (kon) worked out at 8.4e+06 M⁻¹ s⁻¹.

B14: P1-077835 (P1-068744 E31S) (antibody, V domains shown)
VH: QVQLVESGGGVVQPGRSLRLSCAASGFTFSSYAMHWVRQAPGKGLEWVAHIWYDGSNKYEADSVKGRFTISRDNSKNTLYLQMNSLRAEDTAVYYCARDSGFYESYYFDEWGQGTLVTVSS
VL: EIVLTQSPATLSLSPGERATLSCRASQSVSSSYLAWYQQKPGQAPRLLIYDASNRATGIPARFSGSGSGTDFTLTISSLEPEDFATYYCQQYNSYPYTFGQGTKLEIK
With B14, in the assay with hVISTA-ECD 6-His tag [5], the Kd stood at 660 nM, the off-rate (koff) is 0.026 s⁻¹ and the kon was 39000 M⁻¹ s⁻¹. In the assay with hVISTA-ECD 6-His tag [6], the dissociation constant Kd stood at 7.7 nM, the koff worked out at 0.0017 s⁻¹ and the kon was determined as 220000 M⁻¹ s⁻¹.

B15: P1-068752 (antibody, human IgG1, kappa, V domains shown)
VH: QVQLVESGGGVVQPGRSLRLSCAASGFTFSSYAMHWVRQAPGKGLEWVAEIWYDGSNKDYADSVKGRFTISRDNSKNTLYLQMNSLRAEDTAVYYCARDSGFYDSYYFDEWGQGTLVTVSS
VL: EIVLTQSPATLSLSPGERATLSCRASQSVSSSYLAWYQQKPGQAPRLLIYDASNRATGIPARFSGSGSGTDFTLTISSLEPEDFATYYCQQYNSYPYTFGQGTKLEIKR
notes: IgG1.3
In assay [1], B15 yielded a Kd of 5.6 nM, a koff of 0.034 s⁻¹ and a kon of 6.1e+06 M⁻¹ s⁻¹.

B16: P1-068744 (antibody, human IgG1, kappa, V domains shown)
VH: QVQLVESGGGVVQPGRSLRLSCAASGFTFSEYAMHWVRQAPGKGLEWVAHIWYDGSNKYEADSVKGRFTISRDNSKNTLYLQMNSLRAEDTAVYYCARDSGFYESYYFDEWGQGTLVTVSS
VL: EIVLTQSPATLSLSPGERATLSCRASQSVSSSYLAWYQQKPGQAPRLLIYDASNRATGIPARFSGSGSGTDFTLTISSLEPEDFATYYCQQYNSYPYTFGQGTKLEIKR
notes: IgG1.3; also called P1-068744-7
In assay [1], B16 yielded a Kd of 1.3 nM, a koff of 0.0018 s⁻¹ and a kon of 1.3e+06 M⁻¹ s⁻¹.

The values are drawn from US20230192860A1 (Bristol-Myers Squibb, published 2023).
